Variants at the floor of the assay were thinned out.
What was measured:
biotinyl-Ile-oxazolone = experiment: self-aminoacylation, catalytic enhancement (BIO) (fold over background); higher = more active; k-Seq, kA / k0A0; sequences stand for … in GGGAAUGGAUCCACAUCUACGAAUUC…UUCACUGCAGACUUGACGAAGCUG
Summary of the method: (§1)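 Each biotinyl-aminoacyl-oxazolone, at 2–1250 μM, was incubated with mutagenized RNA pools (0.43 μM) carrying a 21-nt variable region. The 50 μL reactions contained HEPES/NaCl/KCl/MgCl2/CaCl2 buffer with 5% acetonitrile at pH 6.9–7.0 and ran for 90 minutes at room temperature. After streptavidin capture, RNA was measured by qPCR in triplicate and by Illumina sequencing, and catalytic enhancement was calculated as median kA over the uncatalyzed rate from a pseudo-first-order fit of per-sequence fraction reacted.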

biotinyl-Trp-oxazolone = experiment: self-aminoacylation, catalytic enhancement (BWO) (fold over background); higher = more active; k-Seq, kA / k0A0; sequences stand for … in GGGAAUGGAUCCACAUCUACGAAUUC…UUCACUGCAGACUUGACGAAGCUG
Summary of the method: as §1

biotinyl-Val-oxazolone = experiment: self-aminoacylation, catalytic enhancement (BVO) (fold over background); higher = more active; k-Seq, kA / k0A0; sequences stand for … in GGGAAUGGAUCCACAUCUACGAAUUC…UUCACUGCAGACUUGACGAAGCUG
Summary of the method: as §1

biotinyl-Phe-oxazolone = experiment: self-aminoacylation, catalytic enhancement (BFO) (fold over background); higher = more active; k-Seq, kA / k0A0; sequences stand for … in GGGAAUGGAUCCACAUCUACGAAUUC…UUCACUGCAGACUUGACGAAGCUG
Summary of the method: as §1

biotinyl-Met-oxazolone = experiment: self-aminoacylation, catalytic enhancement (BMO) (fold over background); higher = more active; k-Seq, kA / k0A0; sequences stand for … in GGGAAUGGAUCCACAUCUACGAAUUC…UUCACUGCAGACUUGACGAAGCUG
Summary of the method: as §1

biotinyl-Leu-oxazolone = experiment: self-aminoacylation, catalytic enhancement (BLO) (fold over background); higher = more active; k-Seq, kA / k0A0; sequences stand for … in GGGAAUGGAUCCACAUCUACGAAUUC…UUCACUGCAGACUUGACGAAGCUG
Summary of the method: as §1

Sequence	self-aminoacylation (biotinyl-Ile-oxazolone)	self-aminoacylation (biotinyl-Trp-oxazolone)	self-aminoacylation (biotinyl-Val-oxazolone)	self-aminoacylation (biotinyl-Phe-oxazolone)	self-aminoacylation (biotinyl-Met-oxazolone)	self-aminoacylation (biotinyl-Leu-oxazolone)
AAAUCUGCUAAUAGUCGCAAG [Fam3.1 aminoacylation ribozyme variant]	2.48	9.08	2.04	19.3	2.01	
AAAUUUACUAAUAGUCGCAAG [Fam3.1 aminoacylation ribozyme variant]	2.35	2.31	2.21	3.14	2.27	1.89
AAAUUUGCUAAAAGUCGCAAG [Fam3.1 aminoacylation ribozyme variant]	2.08	2.75	1.75	2.5	1.93	2.26
AAAUUUGCUAACAGUCGCAAG [Fam3.1 aminoacylation ribozyme variant]	2.02			2.2		
AAAUUUGCUAAUAGUCGCAAU [Fam3.1 aminoacylation ribozyme variant]	2.71	3.09	2.13	2.52	2.35	2.33
AAAUUUGCUAAUAGUGGCAAG [Fam3.1 aminoacylation ribozyme variant]	1.01	0.533	0.74	0.608	0.697	0.7
AAAUUUGCUGAUAGUCGCAAG [Fam3.1 aminoacylation ribozyme variant]	1.73	2.23	1.69	2.14	1.97	1.86
AACACCCUGGUCAUCGAGUGA [Fam2.1 aminoacylation ribozyme variant]	4.52	8.34	4.39	7.58	7.5	6.79
AACCACCUAGGUCAUCGGGUG [Fam2.2 aminoacylation ribozyme variant]	3.78	6.68	4.48	28.8	5.6	4.62
AACUUGGCUAAUAGUCGCAAG [Fam3.1 aminoacylation ribozyme variant]	2.42	2.31	1.71	2.88	2	2.62
AACUUUGCCAAUAGUCGCAAG [Fam3.1 aminoacylation ribozyme variant]	2.62	3.85	2.64	14.7	2.79	2.81
AACUUUGCGAAUAGUCGCAAG [Fam3.1 aminoacylation ribozyme variant]	2.42	2.9	2.4	4.36	2.67	2.6
AACUUUGCUAAAAGUCGCAAG [Fam3.1 aminoacylation ribozyme variant]	3.11	4.13	2.54	6.96	2.47	2.98
AACUUUGCUAAUACUCGCAAG [Fam3.1 aminoacylation ribozyme variant]	2.19			2.02		
AACUUUGCUAAUAGUCACAAG [Fam3.1 aminoacylation ribozyme variant]	2.2	2.52	2.09	3.95	1.47	1.87
AACUUUGCUAAUAGUCGCAGG [Fam3.1 aminoacylation ribozyme variant]	2.29	3.48	2.29	14.1	3.29	2.75
AACUUUGCUAAUAGUCGCGAG [Fam3.1 aminoacylation ribozyme variant]	3.52	3.11	2.76	19.5	2.99	3.74
AACUUUGCUAAUAGUCGCUAG [Fam3.1 aminoacylation ribozyme variant]	2.28	1.84	1.64	2.6	2.22	2.78
AACUUUGCUAAUAGUCUCAAG [Fam3.1 aminoacylation ribozyme variant]	1.47	1.5	1.42	3.43	1.39	1.54
AACUUUGCUAUUAGUCGCAAG [Fam3.1 aminoacylation ribozyme variant]	2.57	2.99	2	4.36	2.34	2.73
AAGAGUGCUAAUAGUCGCAAG [Fam3.1 aminoacylation ribozyme variant]	2.29	1.89	1.73	3.44	1.82	2.19
AAGAUUGCUAAUACUCGCAAG [Fam3.1 aminoacylation ribozyme variant]	1.72	1.91	1.37	1.48	1.41	1.24
AAGAUUGCUAAUAGUCGCAGG [Fam3.1 aminoacylation ribozyme variant]	1.34	1.83	1.64	7.75	1.49	2.05
AAGAUUGCUAAUAGUGGCAAG [Fam3.1 aminoacylation ribozyme variant]	0.786	0.941	0.702	0.997	0.871	0.906
AAGAUUGCUAAUCGUCGCAAG [Fam3.1 aminoacylation ribozyme variant]	2.12	2.1	1.52	1.34	1.57	1.2
AAGAUUGCUAUUAGUCGCAAG [Fam3.1 aminoacylation ribozyme variant]	1.73	1.87	1.6	1.79	1.55	1.62

Sequence	self-aminoacylation (biotinyl-Ile-oxazolone)	self-aminoacylation (biotinyl-Trp-oxazolone)	self-aminoacylation (biotinyl-Val-oxazolone)	self-aminoacylation (biotinyl-Phe-oxazolone)	self-aminoacylation (biotinyl-Met-oxazolone)	self-aminoacylation (biotinyl-Leu-oxazolone)
AAGAUUGGUAAUAGUCGCAAG [Fam3.1 aminoacylation ribozyme variant]	2.04	2.54	1.59	1.65	1.75	2.02
AAGCAUGCUAAUAGUCGCAAG [Fam3.1 aminoacylation ribozyme variant]	2.36	2.61		6.71	2.61	
AAGCUUGCUAAUAGACGCAAG [Fam3.1 aminoacylation ribozyme variant]	0.821	0.574	0.9	1.7	1.51	0.763
AAGCUUGCUAAUAGUCGCCAG [Fam3.1 aminoacylation ribozyme variant]	2.3	3.3	2.33	14.9	2.39	2.63
AAGCUUGCUAAUAUUCGCAAG [Fam3.1 aminoacylation ribozyme variant]	2.47	3.38	2.13			
AAGUUAGCCAAUAGUCGCAAG [Fam3.1 aminoacylation ribozyme variant]	2.02	2.28		2.56	2.22	2.35
AAGUUCGCUAAUAGUCGCACG [Fam3.1 aminoacylation ribozyme variant]	2.34			2.18		2.35
AAUACCCUCGUCAUCGAGUGA [Fam2.1 aminoacylation ribozyme variant]	2.08	3.7		3.81	2.53	3
AAUUUUGCUAAAAGUCGCAAG [Fam3.1 aminoacylation ribozyme variant]	2.1	3.11		2.77		2.38
ACGUCUGCUAAUAGUCGCAAG [Fam3.1 aminoacylation ribozyme variant]	2.02	8.61		32.2	2.12	
AUUACUCUGGCCAUCGAGUGA [Fam2.1 aminoacylation ribozyme variant]	2.06	4.19		11.7	3.15	3.55
AUUCAACUAGGACAUCGGGUG [Fam2.2 aminoacylation ribozyme variant]	2.05	2.79		17	2.42	3.38
AUUCACCUAGGUCAACGAGUG [Fam2.2 aminoacylation ribozyme variant]	2.07			5.07	2.6	3.76
AUUCACUUAGGUCAGCGGGUG [Fam2.2 aminoacylation ribozyme variant]	2.5	2.75		15.6	2.99	3.88
AUUCCCCUGGUCAUCGAGUGG [Fam2.1 aminoacylation ribozyme variant]	2.29	3.73	2.18		2.48	3.15
AUUCUCCUAGGUCAUCGGCUG [Fam2.2 aminoacylation ribozyme variant]	2.19		2.51	9.44	2.49	2.54
CAGUCUGCUAAUAGUCGCAAG [Fam3.1 aminoacylation ribozyme variant]	2.14	9.53		28.2	2.86	
CAGUUUGCUAAUAGUCGCAAA [Fam3.1 aminoacylation ribozyme variant]	2.35			4.61		
CCACAAUUCAAGCAAUCGCUC [Fam1B.1 aminoacylation ribozyme variant]	2.51		2.12		2.18	2.38
CCACACUUAAAGCAAUCGGGC [Fam1B.1 aminoacylation ribozyme variant]	2.19					
CCACACUUCAAGCAAACGGCC [Fam1B.1 aminoacylation ribozyme variant]	2.6	3.66	3.77			3.75
CCACACUUCAAGCAAUUGGUG [Fam1B.1 aminoacylation ribozyme variant]	2.28	2.84		5.72	3.03	3.62
CCACACUUCAAGCAUUCGGUU [Fam1B.1 aminoacylation ribozyme variant]	2.29		2.64	7.27	2.33	2.35
CCCCACUUCAACCAAUCGGUC [Fam1B.1 aminoacylation ribozyme variant]	2.37	53.6		101		2.99
GAGUUUCCUAAUAGUCGCAAG [Fam3.1 aminoacylation ribozyme variant]	2.65	2.26	2.08	2.31		
GCACACAUCAAGCAAUCGGUC [Fam1B.1 aminoacylation ribozyme variant]	2.01	2.22		3.12		

Reference: the supplement of paper PMC9233669
